Assay results reported in publication PMC3518142.

Columns and labels:
[1] = target: GnRHR-DesK191 (human) (UniProt P30968); test: radioligand binding; transfected MDA-MB-231 cells in 24-well plates, 90 minutes at room temperature with [125I]-Buserelin in the presence or absence of excess (10 uM) unlabeled Buserelin; cells washed, solubilized and counted; relative affinities given as Ki
[2] = target: GnRHR-DesK191 (human) (UniProt P30968)
[3] = target: endogenous GnRHR of MDA-MB-231 cells (human (endogenous in MDA-MB-231)) (UniProt P30968); test: radioligand binding; transfected MDA-MB-231 cells in 24-well plates, 90 minutes at room temperature with [125I]-Buserelin in the presence or absence of excess (10 uM) unlabeled Buserelin; cells washed, solubilized and counted; relative affinities given as Ki
[4] = target: Wild-type gonadotropin-releasing hormone receptor (human) (UniProt P30968); test: as above

Row | [125I]-Buserelin binding, percent of WT levels (% of WT levels) [1] | Buserelin-stimulated inositol phosphate (IP) production in transfected MDA-MB-231 cells, relative to WT GnRHR (% of WT levels) [2] | Ki [3] | Ki [4] | Ki [1] | Substance
1 | 139 | – | – | – | – | [125I]-Buserelin (peptide)
2 | – | 590 | 1030 nM | 500 nM | 700 nM | Buserelin (peptide)
